In publication PMC12449476, “Transient ligand contacts of the intrinsically disordered N-terminus of neuropeptide Y2 receptor regulate arrestin-3 recruitment” (Nature Communications, 2025):
Several values for one entry are separate records, joined by “and”; a condition that tells them apart may be missing. Equal values may be shown once.

Key:
[1] = molecular target: Y2R-eYFP D35–E39K (human) (UniProt P49146); test: FRET or BRET; BRET between Nluc-arrestin-3 and Y2R-eYFP variants in live HEK293 cells, concentration-response to NPY, read 10 min after stimulation at 37 °C
[2] = molecular target: Δ2–41 variant or charge reversal in the acidic patches (Nluc-Y2R-eYFP variants, ligand dissociation); test: FRET or BRET; NanoBRET ligand dissociation from the low-affinity state: membranes pre-incubated with 300 nM K18-Tamra-NPY for 10 min, re-binding blocked by 50 µM JNJ-31020028, BRET decay for 20 min, one-phase dissociation fit
[3] = molecular target: Nluc-Y2R-eYFP D42A-S43A-T44A (human) (UniProt P49146); test: FRET or BRET; NanoBRET equilibrium binding: dilution series of K18-Tamra-NPY on HEK293 membranes with Nluc-Y2R-eYFP variants, HBSS, 20 mM HEPES pH 7.4, 0.1% BSA, 10 min at room temperature; unspecific binding with 100 µM JNJ-31020028; biphasic fit (high- and low-affinity state)
[4] = molecular target: Nluc-Y2R-eYFP Δ2–41 (human) (UniProt P49146); test: as above
[5] = molecular target: Neuropeptide Y (Homo sapiens) (UniProt P01303); conditions: cited from earlier work
[6] = molecular target: Tetramethylrhodamine-NPY (Tamra-NPY) (porcine); test: fluorescence polarisation; fixed 50 nM Tamra-NPY, titrated with Y2R-loaded bicelles (x axis: log c, bicelles / M); empty bicelles as control

Sequence of Neuropeptide Y receptor type 2 (P49146 whole entry): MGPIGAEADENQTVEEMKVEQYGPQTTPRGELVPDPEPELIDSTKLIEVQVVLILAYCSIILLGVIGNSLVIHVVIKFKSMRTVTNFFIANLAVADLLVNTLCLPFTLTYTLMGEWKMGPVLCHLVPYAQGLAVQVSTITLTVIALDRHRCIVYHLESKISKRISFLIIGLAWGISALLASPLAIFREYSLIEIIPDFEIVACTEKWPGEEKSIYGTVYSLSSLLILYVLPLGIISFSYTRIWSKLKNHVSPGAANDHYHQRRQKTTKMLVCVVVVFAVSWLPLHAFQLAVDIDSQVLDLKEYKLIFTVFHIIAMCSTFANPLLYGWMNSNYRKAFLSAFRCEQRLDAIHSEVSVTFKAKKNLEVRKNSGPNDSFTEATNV
Sequence of lipid-reconstituted cysteine-deficient Y2R (Y2R-Δ6) (P49146 whole entry, stated change not applied): as the sequence (P49146 whole entry) above
Sequence of Y2R-eYFP D35–E39K (human) (P49146 whole entry E39K): as the sequence (P49146 whole entry) above, with E39K counted along it
Sequence of Nluc-Y2R-eYFP D42A-S43A-T44A (human) (P49146 whole entry D42A/S43A/T44A): as the sequence (P49146 whole entry) above, with D42A, S43A, T44A counted along it
Sequence of Nluc-Y2R-eYFP Δ2–41 (human) (P49146 other isoform, or with tags, fused parts or gaps): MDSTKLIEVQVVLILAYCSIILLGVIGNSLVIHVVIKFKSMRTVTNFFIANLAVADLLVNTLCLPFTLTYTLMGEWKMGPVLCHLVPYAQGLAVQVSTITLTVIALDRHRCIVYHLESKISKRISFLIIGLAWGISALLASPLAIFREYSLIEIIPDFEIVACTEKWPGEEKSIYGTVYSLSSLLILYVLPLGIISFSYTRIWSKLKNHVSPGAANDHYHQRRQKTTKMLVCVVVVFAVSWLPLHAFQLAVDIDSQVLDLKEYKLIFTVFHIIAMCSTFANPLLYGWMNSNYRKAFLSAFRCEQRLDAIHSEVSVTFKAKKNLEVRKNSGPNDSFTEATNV

Nluc-arrestin-3 (from UniProt P32121 1-409) (natural protein)
BRETmax [1]: 49%

K18-Tamra-NPY (peptide)
fold increase of ligand dissociation (koff) against wild-type Y2R [2]: 2 fold and 3 fold | fold reduction of the affinity of the low-affinity state against wild-type Y2R [3]: 3 fold | fold reduction of the low-affinity binding constant against wild-type Y2R [4]: 2 fold

Neuropeptide Y receptor type 2 (from UniProt P49146)
Kd [5]: 300 nM

lipid-reconstituted cysteine-deficient Y2R (Y2R-Δ6) (from UniProt P49146 1-381) (receptor)
Kd [6]: 44.5 nM
